The data set in a line: yeast display, Sf9 membrane polyspecificity reagent, FACS + sequencing; frameworks hold sequencing errors. The gist of the method: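 A synthetic nanobody library was expressed on Saccharomyces cerevisiae BJ5465 by galactose induction for 36–48 hours. The library was stained for 1 hour at 4 °C with 10% biotinylated, detergent-solubilized Sf9 membrane reagent and enriched with streptavidin microbeads before FACS. Low and high (top ~1%) gates were set on anti-HA fluorescence for expression and streptavidin fluorescence for reagent binding, and each polyreactivity label reflects the gate of origin.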
On to “QVQLQESGRRPGAAGGSPRMSCAASGNIFWVAVMGRYRQAPGKERELVASIGFGCTTYYADSVKCRFTISRDNAKKTVYLQMISLKPEDTAVYYCAAPNYDWGELDYWGQGTQVPVSS”, for which the “polyreactivity (PSR sort gate)” value is “low polyreactivity”.
The value for “QVQLQESGSGLVQAGGSLRLSCAASGNISHYNDMGWYRQAPGKEREPVATINSGSITYYADSVKGRFTISRDNAKNTVYLQMNSLKPEDTAVYYCAVKQHGYFYLDYWGQGTQVTVSS” was “high polyreactivity”; that for “QVQLQESGVGLVQASGSIFHEPNMGSYRQAPGKERELVAGISSGANTYYADSVKGRFTISRDNAKNTVYLQMNSLKPEDTAVYHCAVVVHLYTDLRYWGQDTQVTVSS” was “high polyreactivity”.
Regarding “QVQLQESRGGLVKAGGSLRLSCAATGNISPRDAMGWYRQAPGEERDLVASNAYSAITYYADGVKGRYTISRDNAKNTVYLQMNSLKPEDTEVYYCAVYQFTYPVFPAYWGQGTQVTVSS”, the “polyreactivity (PSR sort gate)” value was “low polyreactivity”.
With “QVQLQESRGGLVQAGGSLRLSCAASGTISDRAGMGWYRQAPAKNAIVATIDRGTNTNYADSVKGRFTISRDNAKNTVYLQMNSLKPEDTAVYNCAADGRYYIYLDYWGQGTQVTVSS”, the “polyreactivity (PSR sort gate)” value was “low polyreactivity”.
In the case of “QVQLQESSGGLVQAGGSLRMSCAASGTIFHFHIMGWYRQAPGKESEFVAAISYGTSTYYADSVKGRFTISRDNAKNTVYLQMNSQKPEDSAVNYCAVYDYLEVYCWYWGQGTQVTVSS”, the “polyreactivity (PSR sort gate)” value is reported as “low polyreactivity”.
For “QVQLQESVDGLVQAGGSLSLSSAASGTIFSDYGMGGYRQAPGKERELLAGISDGCNTNYTDSVKGRCTISRDNAHRVSADEQPETGGYRGVLLRGSERWLLFYVYWGQGTQVTVSS”, the “polyreactivity (PSR sort gate)” value is on record as “high polyreactivity”.
In the case of “QVQLQESVGGLVQAGGSLRLSCAASGNIFPTDRMGWYRQAPGKELEFVATISDGGSTNYADSVKGRFTISRDNAKNTVYLQMNSLKPEDTAVYYCAVWSLGRWRHYYWGQGTQVTVSS”, the “polyreactivity (PSR sort gate)” value is recorded as “low polyreactivity”.
On to “QVQLQESVGGLVQAGGSLRLSCAASGNIFPTDRMGWYRQAPGKELEFVATISHGGSTNYADSVKGRFTISRDNAKNTVYLQMNSLKPEDTAVYYCAVWSLGRWRHYYWGQVTQVTVSS”, for which the “polyreactivity (PSR sort gate)” value was “low polyreactivity”.
On to “QVQLQESVGGLVQAGGTLRMSCAASGSFSADEDMGWYRQAQGKEREFVAGISVGGNTNYADSVKGRFTISRENAKNTVYLQINSLKPEETAVYYCAADYKPTSRSNTYYYWGQGTQVTVSS”, for which the “polyreactivity (PSR sort gate)” value is listed as “high polyreactivity”.
On to “QVQLQGSGGGLVQAGGSLRLSCAASGYNFQNVPMGWNRQAPGKERELVAGIDNGTSTNYADSVNGRFTISRDNAKNTVYLQMNSLKPEDTAVYYCAAAGQADDTLGYWGQGTQVTVSS”, for which the “polyreactivity (PSR sort gate)” value is given as “low polyreactivity”.
In the case of “QVQLQVSGGDLVQAGGSLRLSCAASGTIYGLISMGWYRQAPGKEREFVAAITDGGNTNYADSVKGRFTISRDNAKYTVYLQMISLKPEDTAVYYCAVLFSDDAYYAYWGQGTQVTVSS”, the “polyreactivity (PSR sort gate)” value is listed as “low polyreactivity”.
As for “QVQLQVSGGGLVQAGGNLRLSCAASGTISDSVGMGWYRQAPGKEREFVAGITLGGITNYADSVRGRFTISRDNGKNLYLQMKSLKPEETAVYYCAVDDYRYINYEFWGQGTQVTVSS”, the “polyreactivity (PSR sort gate)” value is “high polyreactivity”.
With “QVQLQVSGGGLVQAGGNLRLSCASSCTISESFGMGWNRQAPGKEREFVAGITMGGITNYADSVRGRFTISRDNAKNMYLQMNSLKPEDTAVYYCEVDDYRYINYEFWGQGTQVSVSS”, the “polyreactivity (PSR sort gate)” value is “high polyreactivity”.
On to “QVQLQVSGGVLVQAGGSLRLTCAASGSIFLTSEMGWYRQAPGKERELVAAIATGTSTNYADSVKGRFTISRDNAKNTVYLQMNSLKPEDTAVYYCETYHYWGQGTQVTVSS”, for which the “polyreactivity (PSR sort gate)” value is given as “low polyreactivity”.
The same measure for “QVQLRESGCGLVQAGGNLRLSCAARGNIFDADIMGWYRQAPGKERELVASITDGGSTNYADSVRCRFTISRDNAKNTVYLQMNSLKPEDTAVYYCTAIAYPDIPTYFDHDSDYFYWGQGTQVTVSS”: “high polyreactivity”.
Take “QVQLVASAGGLVQAGGSLRFSCAASGRSFKRYTMGWYRQAPGKERELVAAITKRADRTNYADSVKGRFTISRDNAKNTVYLQMNSLKPEDTAVYYCYADGQNDLPSNGYISYKYDYWGQGTQVTVSS”: the “polyreactivity (PSR sort gate)” value is given as “low polyreactivity”.
The value for “QVQLVASGGGLDQAGGSLRLSCAASGFPFQENAMGWYRQAPGKERELVAAISYGGGSPSYADSVKGRFTISRDNAKNTVYVQMNSLKPEDNAVYYCAADGGSAYAWYFAELYGYWGQGTQVTVSS” was “low polyreactivity”; that for “QVQLVASGGGLLQAGGSLRLSCAASGSIVGLYAMGWYRQAPGNETELVAAISWSAGRTYYADTVKGRFTISRDNAKNTVYLQMNSLIPEETAVYYCNAPYLHYVFVFTDYSQRYDYWGQGTQVTVSS” was “high polyreactivity”.
As to “QVQLVASGGGLVQAGGSLRLSCAASGSIFSYYTMGWYSQAPGKERELVASISRSGGRTNYADSVKGRFTISRDNAKNTVYLQMNSLKPEDTAVYYCKTERWGPYPHKRYNYWGQGTQVTVSS”, the “polyreactivity (PSR sort gate)” value is “high polyreactivity”.
For the sequence “QVQLVASGGGLVQAGGSLRLSCAASGSISFYNAMGWYRQAPGKERELVAAINRSGGSTNYADSVKGLFTISRDNGKNTVYLQMNSLKPEDTAVYYCAAVSSKGNRHVYDYWGQGTQVTGSS”, the “polyreactivity (PSR sort gate)” value is “low polyreactivity”.
“QVQLVASGGGLVQAGGSLRLSCAASGSTFYYNAMGWSRQAPGKERELVAVISTSDGSTNYADSVKRRFTISSDNAKNTVYLQMISLKPEDTAVYYCAADYSESRRFDYWGQGTQVTVSS”: the “polyreactivity (PSR sort gate)” value is reported as “low polyreactivity”.
On to “QVQLVASGGGLVQAGGSLRLSCAATGSIFYINTMGWYRQAPGKERELVAAINFSDGRTYYADSVMGRFTISRDNAKNTVYLQIHSLKPEDTAVYYCAADVYPSEYDYWGQGTQVTVSS”, for which the “polyreactivity (PSR sort gate)” value is listed as “low polyreactivity”.
Consider “QVQLVASGGGLVQSGGSLRLSCASSGSTFFRYAMGWYRHAPGKERELVAAISWSGGPTYYADSVKGRFTISRDNAKNTVFLQMNSLKPQDTAVYYCNAVRQGHILDYWGQGSQVTVSS”, for which the “polyreactivity (PSR sort gate)” value is “low polyreactivity”.
“QVQLVDSAGALVQAGGSLRLSCAASGRTFRYNAMGWYRQAPGKERELVAAITQSGGSTYYADSVKGRFTISRDNAKNTVYLQMNSQKPEDTAVYYCAKVRERINYDYWGQGTQVTVSS”: the “polyreactivity (PSR sort gate)” value is reported as “low polyreactivity”.
Turning to “QVQLVDSAGCLVQAGGSLRLSCAASGRIFVYYVMGWYRQAPGKERELVASITFRGSRTYYADSVKGRFTISRDYAKNTVYLQMISLKPEDTAVYYCNADVWASGSRGDGYWGQGTQVTVAS”, the “polyreactivity (PSR sort gate)” value was “low polyreactivity”.
For “QVQLVDSAGCLVQAGGTLRLSGSASGSIFDAYAMGWYRQAPGKERELVASITSGGRTTYADSVKGRFTISRDNALNTVYLQMNSLKPEDTAVYYCAALRPGPRDDYWGQGSQVTVSS”, the “polyreactivity (PSR sort gate)” value is “high polyreactivity”.
For “QVQLVDSCGGLVQAGGSLRLSCHASGLTFFANAMGWYRQEHGKERELVAAITRRGGSTYYADSVKGRFTNSRDNAKNTVYLQMNSLKPEDTAVYYCAAEPRSVPAQYRSGDYWGQGTQVTVSS”, the “polyreactivity (PSR sort gate)” value is listed as “high polyreactivity”.
For “QVQLVDSGGALVQAGGSLRLSCAASGRTFRPNAMGWYRQAPGKERELVAVISWRGGRTYYADYVKGRFTISRDIAKNTVYLQMNSLKPEDTAVYYCGARVYLSGYGYNYWGQGTHVTVSS”, the “polyreactivity (PSR sort gate)” value is given as “high polyreactivity”.
Turning to “QVQLVDSGGAVVQAGGSLRLSCAASGYTFYRYAMGWYRQAPGKERELVAAMSRRGTRTYYADSVKGRFTISRDNAKNTVYLQMNSLKPEDTAVYFCNARRVRDVWWQLKRGDYWGQATQVTVSS”, the “polyreactivity (PSR sort gate)” value was “high polyreactivity”.
In the case of “QVQLVDSGGGIVQAGGSLRLSCAASGFIIAHYAMGWYRHAPGKERELVAAISWNGGRTYYADSVKGRFTISRDNAKNSVFFQRISLKPEDTAVYYCAADNRGTTVYYRNYYWGQGTQVTVSS”, the “polyreactivity (PSR sort gate)” value is “high polyreactivity”.
Consider “QVQLVDSGGGLGQAGGSLRLSCAASGIIISGYAMGWYRQAPGKERELVASIRSGSNTYYADSVKGRFTISRDNAKNTVYLQKNSLNPEDTAVYYCAARVVPATFRFIRYPNTYYYWGQGSQVTVSS”, for which the “polyreactivity (PSR sort gate)” value was “low polyreactivity”.
As for “QVQLVDSGGGLVQAAGSLRLSCAASGRIFYYNAKGCYRQAPVKERELVAAITRSGGSTYYADSVKGRFTSSRDNAKHTVYLQMNSLKPEDTAVYYCAKPDRTGWLDGDYWGQGTQVTVSS”, the “polyreactivity (PSR sort gate)” value is recorded as “low polyreactivity”.
Take “QVQLVDSGGGLVQAGGILRLSCPASGLIIRKNAMGWYRQAPGKERELVAAISYNGASTYYADSVKGRFTISRDNAKNTVYLQMNSLKPEDTAVYYCAAYAGYSDQARYYYWGQGTQVTVSS”: the “polyreactivity (PSR sort gate)” value is “high polyreactivity”.
Consider “QVQLVDSGGGLVQAGGSHRLSCAASGFTFPYNAMGWYRQAPGKERELVAANSSTGGITYYADSVKGRFTISRDNAKNTVYLQMNSLKPEDTAVYYCGWYDYWGQGTQVTVSS”, for which the “polyreactivity (PSR sort gate)” value is on record as “low polyreactivity”.
With “QVQLVDSGGGLVQAGGSHRLSCAASGSIFPRYAMGWYRQAPGKERELVAAITRSGGSTYADSVKGRFTISRDNAKNTVYLQMNSLKPEDTAVYYCNGKVYPWGYYTSWRTVSPYDYWGQGTQVTVSS”, the “polyreactivity (PSR sort gate)” value is on record as “high polyreactivity”.
For the sequence “QVQLVDSGGGLVQAGGSLLLSCAASGSISYQNAMGWYRQAPGKERELVAANSGDGDSTYYADSVKGRFTISRDNAKNTVYLQMNRLKPEDTAVYYCAAEPNVYFSVFVLFTSDYWGQGTLVTVSS”, the “polyreactivity (PSR sort gate)” value was “low polyreactivity”.
The value for “QVQLVDSGGGLVQAGGSLLLSCSASGSIFFSYAMGLYRQAPGKEREFVAAINSDDASTYADSVKGRFTISRDNAKNTVYLQMNSLKPEDTAVYYCAASFLWSWYDYWGQGTQVTVSS” was “low polyreactivity”; that for “QVQLVDSGGGLVQAGGSLPLSCAASGSIFDDYAMGWNRKAPGKERELVAAISGGVSTNYADSVKGRFTISRDNAKKTDYLQINSLKPEDTAVYYCNADYARAYIHEYWGQGTQVTVSS” was “low polyreactivity”.
On to “QVQLVDSGGGLVQAGGSLRISCAASGSIFPPYAMGWSRQAPGKERELVAAITYSGVRTYYADSVKGRFTISRDNAKNTVYLQMNSLKPEDTAVYYCAAVYRRGIGYPFGYWGQGTQVSVSS”, for which the “polyreactivity (PSR sort gate)” value is on record as “high polyreactivity”.
For the sequence “QVQLVDSGGGLVQAGGSLRLICAASGRIFIYNAMGWYRQAPGKERELVAAITRGGNTNYADSVKGRFTISRDNAKNTVYLQMNSLKPEDTAVYYCAAAIRYGSRHRGYWGQGTQVTVSS”, the “polyreactivity (PSR sort gate)” value was “low polyreactivity”.

The values above are taken from the nanobody polyreactivity screen of Harvey et al. (2022).
